In US20130316910A1 (UNIVERSITY OF TOKYO, published 2013):

Molecular target: T1, Bcl-2 protein having His tag on the C terminal side (UniProt P10415 1-211, limits assumed)
T1 construct: Immobilised through its His tag on a Ni-loaded SPR substrate; not shown: C-terminal His tag
Assay: SPR, His-tagged Bcl-2 immobilised on Ni substrate, peptide in solution
Experimental: Next, a crosslinked peptide having the amino acid sequence as shown in the above table was synthesized by using a Fmoc solid-phase method and its binding ability was evaluated by calculating a dissociation constant (KD) in accordance with an evaluation method using SPR (Surface Plasmon Resonance).
Described specifically, first, a solution containing NiCl₂ was applied on a substrate to which Ni could be bound and then Bcl-2 protein having His tag on the C terminal side thereof was applied to immobilize the protein on the substrate. Then, a solution containing a solid-phase synthesized peptide was added successively while appropriately changing the concentration. During addition, a change in refractive index depending on the weight on the substrate was read and bond strength was evaluated based on the binding rate and dissociation rate of the peptide calculated.

T1 sequence (P10415 1-211 limits assumed): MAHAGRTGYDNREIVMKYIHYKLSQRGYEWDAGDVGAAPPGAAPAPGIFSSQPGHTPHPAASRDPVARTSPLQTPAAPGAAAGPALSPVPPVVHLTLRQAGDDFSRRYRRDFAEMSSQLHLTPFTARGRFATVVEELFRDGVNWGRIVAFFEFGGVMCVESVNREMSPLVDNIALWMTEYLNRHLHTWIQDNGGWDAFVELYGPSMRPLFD

Binder	Kd
Ac-FPHATIAARADSYDSYVRLAATFL-NH2 (by the library design Ala stands where the special amino acid and Cys would be) [A-1A]	15 nM
Ac-FFNRHNNAYYTAGYAALGRLYRLL-NH2 [A-4A]	~14 nM

Continued, values first:

Kd	Binder
3.6 nM	Ac-FPHATIAARADSYDSYVRLVATFR-NH2 [A-2A]
0.58 nM	Ac-FIIARFSALADSYDASRHIF-NH2 [A-5A]
